Positions count from the first letter of the chain named. Names may count otherwise.

T1: full length human TL1A expressed on HEK293 cells (human, UniProt O95150 1-251)
T1 construct: also called HEK293/hTL1A; cell-surface hTL1A
T1 sequence: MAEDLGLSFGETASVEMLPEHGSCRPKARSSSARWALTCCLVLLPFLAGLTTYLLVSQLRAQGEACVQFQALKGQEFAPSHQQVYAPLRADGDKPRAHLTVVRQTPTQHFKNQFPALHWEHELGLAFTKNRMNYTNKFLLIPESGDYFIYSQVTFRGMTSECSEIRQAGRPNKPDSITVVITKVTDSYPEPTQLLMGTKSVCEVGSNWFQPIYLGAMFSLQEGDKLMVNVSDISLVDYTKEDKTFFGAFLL

T2: mouse TL1A, soluble, CHO-expressed, residues 76-252 of SEQ ID NO:250 with N-terminal His6-tag (mouse, UniProt Q5UBV8 76-252)
T2 construct: also called mTL1A; mTL1A (CHO)
T2 sequence: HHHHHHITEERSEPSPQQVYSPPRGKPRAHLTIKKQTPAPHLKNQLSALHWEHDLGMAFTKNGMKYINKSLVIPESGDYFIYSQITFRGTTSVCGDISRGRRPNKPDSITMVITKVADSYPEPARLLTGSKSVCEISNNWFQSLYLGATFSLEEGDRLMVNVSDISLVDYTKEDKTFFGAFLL

T3: human TL1A, soluble, CHO-expressed, residues 72-251 of SEQ ID NO:244 with N-terminal His6-tag (human, UniProt O95150 72-251)
T3 construct: also called hTL1A; hTL1A (CHO)
T3 sequence: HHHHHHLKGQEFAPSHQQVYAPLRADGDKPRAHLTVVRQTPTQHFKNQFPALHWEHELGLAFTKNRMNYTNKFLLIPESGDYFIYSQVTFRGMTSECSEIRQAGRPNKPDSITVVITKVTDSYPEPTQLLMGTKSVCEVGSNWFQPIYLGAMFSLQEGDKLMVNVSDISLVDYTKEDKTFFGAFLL

T4: cynomolgus monkey TL1A, soluble, CHO-expressed, residues 72-251 of SEQ ID NO:248 with N-terminal His6-tag (cynomolgus monkey (Macaca fascicularis), UniProt O95150 72-251 (human entry))
T4 construct: also called MfTL1A; MfTL1A (CHO)
T4 chain: T3 sequence with F45L, I84V

B1: H4H1817N (antibody, human IgG4 S228P, V domains shown)
VH: QVQLQQWGAGLLKPSETLSLTCAVSGGSFSDYFWTWIRQPPGKGLEWIGEISHSGRTNYNPSLKSRVTISVDTSMSQFSLKMTSVTAADSAVYYCARDYPNWVFDYWGQGTLVTVSS
VL: EIELTQSPGTLSLSPGEGATLSCRASQSVFNSYLAWYQQKPGQAPRLLIYGASRRATGIPDRFSGSGSGTDFTLTISRLEPGDFAVYFCQQYGNSPLTFGGGTKVEIK
notes: human IgG4(S108P) form of H2M1817N
B2: H4H1681N (antibody, human IgG4 S228P, V domains shown)
VH: EVQLLESGGGLVQPGKSLRLSCAVSGFTFSTYGMNWVRQAPGKGLEWVSSISGTGRTTYHADSVQGRFTVSRDNSKNILYLQMNSLRADDTAVYFCTKERGDYYYGVFDYWGQGTLVTVSS
VL: DIQMTQSPSTLSASVGDRVTITCRASQTISSWLAWYQQTPEKAPKLLIYAASNLQSGVPSRFSGSGSGTEFTLTISSLQPDDFATYYCQQYHRSWTFGQGTKVEIT
B3: H4H1742P (antibody, human IgG4 S228P, V domains shown)
VH: EVQLVESGGGLVQPGGSLRLSCAASGFTFSNYVMNWVRQAPGKGLEWVSVISGSGGSTHYADSVKGRFTISRDNSKDALYLQMNSLRAEDTAVYYCAKGPLEAYYYYNGMDVWGQGTTVTVSS
VL: DIQLTQSPSFLSASVGDRVTITCWASQAISSYLAWYQHKPGRAPKLLIYSTSTLQSGVPSRFSGSGSGTEFTLTISSLQPEDFATYYCQQLNSYPTFGQGTKLEIK
B4: H4H1745P (antibody, human IgG4 S228P, V domains shown)
VH: EVQLVESGGGLVQPGGSLRLSCAASGFTFSSYAMTWVRQAPGKGLEWVSGVSGRGGSTYYADSVKGRFTISRDNSKNTLYLQMNSLRAEDTAVYYCAYWDISSFDYWGQGTLVTVSS
VL: DIQLTQSPSFLSASVGDRVTITCWASQGISTYLAWYQQKPGKTPKLLIYAASTLQSGVPSRFSGSGSGTDFTLTISSLQPEDFATYYCQQFNSYPLTFGGGTKVEIK
B5: H4H1704N (antibody, human IgG4 S228P, V domains shown)
VH: EVQLVESGGGLVQPGGSLRLSCAVSGFTFSSYWMSWVRQAPGKGLEWVANIKEDGSEKNYVDSVKGRFTLSSDNAKNSLYLQMNSLRAEDTAVYYCAREDYDSYYKYGMDVWGQGTAVIVSS
VL: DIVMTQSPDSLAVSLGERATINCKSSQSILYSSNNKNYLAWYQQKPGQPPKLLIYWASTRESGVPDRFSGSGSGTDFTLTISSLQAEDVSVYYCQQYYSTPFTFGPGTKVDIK
notes: human IgG4(S108P) form of H2M1704N
B6: H4H1804N (antibody, human IgG4 S228P, V domains shown)
VH: QVQLHQWGAGLLKPSETLSLTCAVSGVSFSDYHWAWIRQSPGKGLEWIGDINHRGRTNYNPSLKSRVTISLDTSGNPFSLKLTSVTAADTAVYYCARDFPNWVFDSWGQGILVTVSS
VL: EIVLSQSPGTLSLSPGERATLSCRASQSVSSSFLAWYQQYPGQAPRLLIYGASRRATGIPDRFRGSGSGTDFTLTISRLEPEDFAVYYCQQYGSSPLTFGGGTKVENK
notes: human IgG4(S108P) form of H2M1804N
B7: H4H1805N (antibody, human IgG4 S228P, V domains shown)
VH: QVQLQQWGAGLLKPSETLSLTCAVYGGSFTGFYWSWIRQPPGKGLEWIGEINHRGNTNYNPSLKSRVTMSVDTSKNQFSLNMISVTAADTAMYFCASPFYDFWSGSDYWGQGTLVTVSS
VL: DIMLTQTPLTSPVTLGQPASISCKSSQSLVHSDGNTYLSWLQQRPGQPPRLLFYKISNRFSGVPDRFSGSGAGTDFTLKISRVEAEDVGVYYCMQATQFPLTFGGGTKVEIK
notes: human IgG4(S108P) form of H2M1805N
B8: H4H1725P (antibody, human IgG4 S228P, V domains shown)
VH: QVQLVQSGAEVKKPGASVKVSCKASGYTFTGYYMHWVRQAPGQGLEWMGWIKPKSGGTNYVQKFQGRVTMTRDTSINTAYMELNNLKSDDTAVYYCATGGSQDASDFWGQGTMVTVSS
VL: DIQMTQSPSSVSASVGGRVTITCRASQDISIWLAWYQQKPGKAPNLLIYAASSLQSGVPSRFSGSGSGTDFTLTISSLQPEDFATYYCQQADSFPLTFGGGTKVEIK
B9: H4H1750P (antibody, human IgG4 S228P, V domains shown)
VH: QVQLVESGGGVVQPGRSLRLSCVASGFTFSNYGMHWVRQAPGKGLEWVAVISYDGNNDLYSDSVKGRFTISRDNAKNALSLQMTSLRAEDTAVYYCARDSTMTPYYYHGIDVWGQGTTVTVSA
VL: DIQMTQSPSSLSASVGDRVTITCRASQDIRNDLGWYQQKPGKAPKRLIYAASSLQSGVPSRFSGSGSGTDFTLTISSLQPEDFATYYCLQHNSYPPTFGQGTKVEIK
B10: H4H1818N (antibody, human IgG4 S228P, V domains shown)
VH: RLQLVESGGGLVKPGGSLKLSCAASGFTISDYYMSWIRQAPGKGLEWVSYIGGSGSTIYYADSVKGRFTISRDNAKNSLYLQMNSLRAEDTAVYYCAREDADSYYYYGMDVWGQGTTVTVSS
VL: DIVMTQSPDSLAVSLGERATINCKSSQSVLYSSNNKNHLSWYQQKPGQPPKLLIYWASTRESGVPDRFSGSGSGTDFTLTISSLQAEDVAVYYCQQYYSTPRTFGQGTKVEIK
notes: human IgG4(S108P) form of H2M1818N

One test has as its target T1, full length human TL1A expressed on …. The test is described as follows: flow, HEK293/hTL1A, mAb 1 ug/ml + 3 ug/ml soluble hTL1A. The protocol: (§1) Human embryonic kidney 293 cells stably transfected to over-express cell-surface hTL1A were first stained in a flow cytometric experiment with eight anti-hTL1A antibodies at four concentrations (1, 0.1, 0.01, and 0.003 μg/ml). […] The lowest antibody concentration providing significant staining levels was then used in a competition binding experiment. A negative isotype control antibody (human IgG4) was used at 1 μg/ml to define the background signal. For the competition experiment, eight antibody samples, at the minimal concentrations identified above, were first treated with soluble hTL1A expressed from CHO cells at concentrations ranging from 0.03 μg/ml to 10 μg/ml. After pre-incubation for 30 min on ice, the antibody/hTL1A mixture was added to 293/HEK-hTL1A cells that had been isolated by centrifugation in a 96-well conical plate. After incubation for an additional 10 minutes on ice, the cells were washed. The secondary reagent, anti-h Fcγ-APC F(ab′)₂, was added to all wells at a 200-fold dilution to detect bound antibodies. Samples were incubated for 15 minutes on ice, away from light, and then washed. Cells were processed on an BD™ LSR II Flow Cytometer (BD Biosciences) to detect anti-hTL1A antibodies bound to the cell surface, and data were analyzed using FlowJo software (version 8.8.6; Tree Star Inc.). Maximum signal: Anti-hTL1A antibody binding in the absence of soluble hTL1A; Minimum signal: Signal recorded when […] of isotype control antibody was added in place of the anti-hTL1A antibody. NT: Not tested.
Turning to B1, the MFI came out at 25.2.

B2: the MFI stood at 28.5.

As for B3, the MFI amounted to 19.9.

With B4, the MFI came to 19.5.

The next test shares this target. As to the kind of experiment: flow, HEK293/hTL1A, mAb 1 ug/ml + 0.03 ug/ml soluble hTL1A. How it is done: as §1
Turning to B1, the MFI was determined as 85.3.

Turning to B2, the MFI is 318.

Consider B3, for which the MFI came out at 126.

Regarding B4, the MFI was 80.

For another test the target is unchanged. The test is described as follows: flow, HEK293/hTL1A, mAb 0.1 ug/ml + 0.3 ug/ml soluble hTL1A. The protocol:
as §1
For B5, the MFI turned out to be 31.5.

Consider B6, for which the MFI came out at 33.5.

Consider B7, for which the MFI is 36.8.

With B8, the MFI is 40.7.

A further test has as its target T2, mouse TL1A, soluble, CHO-expressed, …. The test is described as follows: SPR 25C, mAb captured. The method in brief: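 Biacore T100 SPR with captured mAb and soluble TL1A/Fhm analyte; ka and kd fitted to a 1:1 model assuming monomeric TL1A. KD = kd/ka; t1/2 (min) = ln2/(60·kd).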
As for B1, the binding result is “no binding (tested: up to 100 nM)”.

In the case of B2, the binding result is “no binding (tested: up to 100 nM)”.

For the molecule B5, the dissociation constant Kd (commonly the equilibrium constant for the complex coming apart) was 194 pM and the t1/2 came out at 0.767 h.

With B7, the binding result is listed as “no binding (tested: up to 100 nM)”.

For another test, the target named is T1, full length human TL1A expressed on …. As to the kind of experiment: flow, HEK293/hTL1A, mAb 0.1 ug/ml + 0.1 ug/ml soluble hTL1A. How it is done:
as §1
Regarding B5, the MFI stood at 132.

B6: the MFI turned out to be 51.1.

For B7, the MFI is 60.2.

Consider B8, for which the MFI came to 84.5.

A further test shares this target. The test is described as follows: flow, HEK293/hTL1A, mAb 0.1 ug/ml + 3 ug/ml soluble hTL1A. How it is done: as §1
For B5, the MFI was found to be 22.6.

B6: the MFI was 28.9.

B7: the MFI is 23.6.

Turning to B8, the MFI is 34.9.

A further test has as its target T3, human TL1A, soluble, CHO-expressed, …. As to the kind of experiment: SPR 37C, mAb captured; kd set at 1e-6 1/s. How it is done:
(§2) Measurements were conducted on a T100 BIACORE™ instrument. […] Kinetic association (kₐ) and dissociation (kd) rate constants were determined by fitting the data to a 1:1 binding model using BIAevaluation 4.1 curve fitting software (BIAcore Life Sciences). Molar concentrations of TL1A/Fhm used in the data fitting assumed a monomeric state for TL1A in solution. Binding dissociation equilibrium constants (KD) and dissociative half-lives (t_{1/2}) were calculated from the kinetic rate constants as: KD (M)=kd/kₐ; and t_{1/2} (min)=[In2/(60*kd)].
In turn, B9 came in with a dissociation constant (Kd) of no more than 13.8 pM and a t1/2 of no less than 192 h.

Molecule B5 gave a dissociation constant Kd of no more than 1 pM and a t1/2 of no less than 192 h.

B3 had a Kd of no more than 4.37 pM and a t1/2 of no less than 192 h.

With B10, the Kd was no more than 0.925 pM and the t1/2 is no less than 192 h.

The next test addresses T4, cynomolgus monkey TL1A, soluble, …. The test is described as follows: SPR 37C, mAb captured; kd set at 1e-6 1/s. How it is done: as §2
As for B5, the dissociation constant (Kd) is no more than 0.93 pM and the t1/2 is no less than 192 h.

The molecule B3 registered a Kd of no more than 4.45 pM and a t1/2 of no less than 192 h.

Molecule B10 showed a dissociation constant (Kd) of no more than 0.804 pM and a t1/2 of no less than 192 h.

Another test concerns the target T1, full length human TL1A expressed on …. As to the kind of experiment: flow, HEK293/hTL1A, mAb 0.1 ug/ml, no soluble hTL1A (maximum signal). The protocol:
as §1
Consider B5, for which the MFI was determined as 116.

In turn, B6 came in with an MFI of 127.

Regarding B7, the MFI came to 158.

Take B8: the MFI was found to be 211.

(Values after patent US20140120109A1 (Regeneron, published 2014).)
